# In PMC6778148 (Nature Communications, 2019):
# Primed or numbered codes have the meaning given here. Ends that are not written are not given here. FITC′ = fluorescein isothiocyanate label; TTDS = PEG linker
# B1: SAP102 tandem PDZ domains 1 and 2 (SAP102-12), from pET-NO (domain or fragment, rat)
# chain: FKYEEIVLERGNSGLGFSIAGGIDNPHVPDDPGIFITKIIPGGAAAMDGRLGVNDCVLRVNEVDVSEVVHSRAVEALKEAGPVVRLVVRRRQPPPETIMEVNLLKGPKGLGFSIAGGIGNQHIPGDNSIYITKIIEGGAAQKDGRLQIGDRLLAVNNTNLQDVRHEEAVASLKNTSDMVYLKVAKPGSL
# notes: first two PDZ domains of rat SAP102, residues 145-333; also called NO-SAP102-12
# B2: PSD-95 PDZ domain 2 (PSD-95-2), as used for fluorescence polarisation (domain or fragment, rat)
# chain: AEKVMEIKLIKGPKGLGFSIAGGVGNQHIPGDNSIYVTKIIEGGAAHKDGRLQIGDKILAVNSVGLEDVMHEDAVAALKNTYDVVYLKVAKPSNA
# notes: also called PSD-95 second PDZ domain; source: E. coli, purified
# B3: biotinylated Xph15 [S63K]-(GGS)12-ETWV, from pbIG (designed binder)
# chain: SSVSSVPTKLEVVAATPTSLLISWDAGPRNVSYYRITYGETGGNSPVQEFTVPGSSSTATISGLKPGVDYTITVYASGHVSTLMTPISINYRTLEGGSGGSGGSGGSGGSGGSGGSGGSGGSGGSGGSGGSGTETWV
# modifications: biotin on the AviTag (BirA)
# B4: biotinylated Xph18 [S63K]-(GGS)12-ETWV, from pbIG (designed binder)
# chain: SSVSSVPTKLEVVAATPTSLLISWDAHSRMAWVNYYRITYGETGGNSPVQEFTVPGSSSTATISGLKPGVDYTITVYANGGGFRRGMAPISINYRTLEGGSGGSGGSGGSGGSGGSGGSGGSGGSGGSGGSGGSGTETWV
# modifications: biotin on the AviTag (BirA)
# B5: biotinylated Xph20 [S63K]-(GGS)12-ETWV, from pbIG (designed binder)
# chain: SSVSSVPTKLEVVAATPTSLLISWDAVAKNVKVGYYRITYGETGGNSPVQEFTVPGSSSTATISGLKPGVDYTITVYANGVLSKMVLPISINYRTLEGGSGGSGGSGGSGGSGGSGGSGGSGGSGGSGGSGGSGTETWV
# modifications: biotin on the AviTag (BirA)
# notes: also called Xph20-ETWV; not shown: AviTag (biotin acceptor peptide), N-terminal, kept
# B6: Xph20 [S63K]-(GGS)12-ETWV with N-terminal His10, from pET-IG (designed binder)
# chain: B5 chain
# notes: also called Xph20-ETWV; pIG-Xph20-ETWV; not shown: His10, N-terminal, kept
# Assays:
# Conditions in all cases: both partners purified
# [1] = biological target: B5; experiment: SPR; Biacore T200, single cycle kinetics at higher analyte concentrations (up to 35 µM); biotinylated Xph15/18/20-ETWV captured (ligand), tandem PDZ domains as analyte; steady state analysis, one site binding (hyperbola)
# [2] = biological target: B3; experiment: as above
# [3] = biological target: B4; experiment: as above
# [4] = biological target: T1, fluorescein-labelled monovalent stargazin peptide; experiment: fluorescence polarisation; direct titration: 50 nM fluorescein-labelled stargazin ligand (divalent or monovalent) against increasing concentrations of PDZ domains; apparent KD
# T1 chain: {FITC′-TTDS}-DSLHANTANRRTTPV
# [5] = biological target: B2; experiment: fluorescence polarisation; competitive titration: ETWV or stargazin monovalent peptide against the complex of 50 nM FITC monovalent stargazin peptide with 24 µM PSD-95-2
# [6] = biological target: B2; experiment: as above
# [7] = biological target: T2, PSD-93 tandem PDZ domains 1 and 2 (PSD-93-12), from pET-NO (rat); experiment: SPR; Biacore T200, single cycle kinetics at higher analyte concentrations (up to 35 µM); biotinylated Xph15/18/20-ETWV captured (ligand), tandem PDZ domains as analyte; steady state analysis, one site binding (hyperbola)
# T2 construct: first two PDZ domains of rat PSD-93, residues 93-282; also called NO-PSD-93-12
# T2 sequence (chain, as listed by the source): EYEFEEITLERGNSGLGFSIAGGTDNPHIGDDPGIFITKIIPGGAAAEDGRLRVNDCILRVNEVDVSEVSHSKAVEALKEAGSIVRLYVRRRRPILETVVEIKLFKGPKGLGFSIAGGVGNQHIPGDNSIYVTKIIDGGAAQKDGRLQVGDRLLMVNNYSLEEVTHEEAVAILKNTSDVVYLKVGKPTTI
# [8] = biological target: T3, PSD-95 tandem PDZ domains 1 and 2 (PSD-95-12), from pET-NO (rat); experiment: SPR; Biacore T200, single cycle kinetics; biotinylated Xph-motif fusion captured on a CAP chip (ligand), tandem PDZ domains as analyte; 25 °C; PBS with 500 mM NaCl pH 7.4, 0.1% Tween 20; global 1:1 fit (kinetics analysis)
# T3 construct: first two PDZ domains of rat PSD-95, residues 61-249; also called NO-PSD-95-12; not shown: His8, N-terminal, kept
# [9] = biological target: T3, PSD-95 tandem PDZ domains 1 and 2 …; experiment: pull-down; competitive pull-down: streptavidin beads with 120 pmol biotinylated [Stg15]2, 180 pmol tandem PDZ domains, then 0-50 (100) equivalents of Xph20-ETWV or Xph0-ETWV; PBS with 500 mM NaCl pH 7.4, Tween 20, 0.5% BSA; SDS-PAGE, colloidal blue, densitometry; One site - Fit Ki
# [10] = biological target: T4, SAP97 tandem PDZ domains 1 and 2 (SAP97-12), from pET-NO (rat); experiment: as above
# T4 construct: first two PDZ domains of rat SAP97, residues 220-408; also called NO-SAP97-12; not shown: His8, N-terminal, kept
# [11] = biological target: T2, PSD-93 tandem PDZ domains 1 and 2 …; experiment: as above
# [12] = biological target: B1; experiment: as above
binder,measurement,setting,value
B1,Kd,[1],9.9 µM
same,Kd,[2],9.8 µM
same,Kd,[3],4.2 µM
B2,Kd,[4],16 µM
Ac-DSLHANTANRRTTPV [acetylated monovalent stargazin peptide],Ki,[5],8.8 µM
same,Ki,[6],8.6 µM
B3,Kd,[7],8.4 µM
B4,Kd,[7],3.2 µM
B5,Kd,[7],7.5 µM
same,Kd,[8],0.089 nM
same,koff,[8],0.00052 s⁻¹
same,kon,[8],8.7e+06 M⁻¹ s⁻¹
B6,Ki,[9],0.0365 µM
same,Ki,[10],0.901 µM
same,Ki,[11],0.261 µM
same,Ki,[12],1.44 µM
